The nature of this data set: soluble on expression in E. coli; label from the status in PepcDB or PDB records.
On to “SASEDAALDATGHKKGEPAFGVTIPKGTTYRDSDGKEVPHPCVDRKIGYQGHFDALYGTYNYSVKEPATDLPKLELMAVDGQQVVPQESLCFRLPPDAGEDGEELSRIRIPDDEEFSFLGKPGDIVWYAPQNIPFANGHRPIWAGIGAFDPHHEPKGKDSIPEHLDKNMYFELKDFSGPGDVNVFFKNNSRKEVERIFSSNDEELKTIEYEMGSHGHFNWTFSKPGIYELTWEAYVKNGAFKVKTEPVRQIWLVGSDEEVGLPEGTTTNLNKITKPLDKDATNEPPTDPSEKKKPPRPEKGHSETSSPSALDDSIERAWKLTGTPKTIINDGHMDLALTRPDKEFVTVINREGKKYSSGDVTLAVPDSGGDQGGPLVKTDSWKDRIEAQISGSLPDQAWVLPESQDHKLPWVGFSNEDLPSDALLPDSKMTVSLNKVELPHDGRMISWHNGISGIDLLTDTDDLSKNLEYGLHAHDHQSMLFTKEGAYGLEYSFDITTASGKQESYPLHISYLVGDATIARAKEILAGEKLGGSLKKKPQEKETKKPASVQNKSGKHNKDTVGSESARKRQQLAATSGSDTNGIYSFHDGDVQDEAVTTAAEWQELDT”, for which the “soluble on expression in E. coli” value is on record as “not soluble”.

For “MALTSVSVYELSRLGPPQQPVRRRSNSTKVRRKDAELGSVDRKRNPKRNQIQPQHNESITITYMGRPRSPSVDLPTSPPIPSVIRQRRSSSTVAKKLPQSASNPSFLRKQGSSSSLSNGLWTDCIEVVNEIGVMAKMESRKIRRLRMAVYRRVRISDDEEMVLTASRALSKCHGWTLDTCHDYLPVIIDNIISMDTSNRIIAAEGLAAIADSLGERLVKFAGMNSHRIGVDIAAEERSEKAKACIQLLRSVVRKRDWYYRHLDVESIDRLDATMERLKSI”, the “soluble on expression in E. coli” value was “not soluble”. The same measure for “MNDLCVDLGYKSLNKFGEQLCGDMIQVVKDDDTTILVLADGLGSGVKANILSTLTSKIISTMIAAHMGIEECVNTIMSTLPVCKVRGIAYSTFTIIKITNNTYAEIIQYDNPLVILLRNGKKYDYPTQTKIISGKKIVESKIRLNCDDVFVVMSDGAIYAGVGQTLNYGWQRENIIEFIESHYDKSLSANALTSLLIDTCNNLYANMPGDDTTIAAIKIRKRQVVNLMFGPPQNPEDVHNMMSLFFAKQGRHIVCGGTTSTLAAKFLGKELETTIDYIDPRIPPIARIEGVDLVTEGVLTISRVLEYAKDYIGKNILYNEWHSKNDGASIIARMLFEEATDINFYVGKAINPAHQNPNLPIGFNIKMQLVEELSKILKQMGKTINLSYF”: “not soluble”; for “MTFEAITREWYQRRYDRWSESYRLEMMSTFESDVFPYIGYRPIKEIKPLELMAVLSKLEKRGATEKMRKVRQRCGEVWKYAIITGRAEYNPAPDLASAFAPHKREHLEHHHHHH”: “not soluble”.

As to “SNAMNDIILKSLSTLITEQRNPNSVDIDRQSTLEIVRLMNEEDKLVPLAIESCLPQISLAVEQIVQAFQQGGRLIYIGAGTSGRLGVLDASECPPTFGVSTEMVKGIIAGGECAIRHPVEGAEDNTKAVLNDLQSIHFSKNDVLVGIAASGRTPYVIAGLQYAKSLGALTISIASNPKSEMAEIADIAIETIVGPEILTGSSRLKSGTAQKMVLNMLTTASMILLGKCYENLMVDVQASNEKLKARAVRIVMQATDCNKTLAEQTLLEADQNAKLAIMMILSTLSKSEAKVLLERHQGKLRNALSK”, the “soluble on expression in E. coli” value is “soluble”. The result for “MTFEKIEEAYQLLLENCQLIENDLKTHIYDAIVEQNSFYLGAEGASPQVAQNSDKLKALCLTKEEWRKAYQFLFIKAAQTEQLQANHQFTPDAIGFILLYLLEQLSDKDSLEVLEIGSGTGNLAQTLLNNTSKSLDYVGIELDDLLIDLSASIAEIMDSSAHFIQEDAVRPQLLKESDIVISDLPVGYYPNDDIAKRYKVASSDKHTYAHHLLMEQSLKYLKKDGFAIFLAPVNLLTSPQSQLLKQWLKDYAQVVTLITLPDSIFGHPSNAKSIIVLQKQTDHPMETFVYPIRDLKLAENIHDFMENFKKWKLSNVN” reads “not soluble”; that for “MGHHHHHHSHMNKDLLRRVLVLMNSKHTFLALCALRFMRRIIGLKDEFYNRYITKGNLFEPVINALLDNGTRYNLLNSAVIELFEFIRVEDIKSLTAHIVENFYKALESIEYVQTFKGLKTKYEQEKDRQNQKLNSVPSILRSNRFRRDAKALEEDEEMWFNEDEEEEGKAVVAPVEKPKPEDDFPDNYEKFMETKKAKESEDKENLPKRTSPGGFKFTFSHSASAANGTNSKSVVAQIPPATSNGSSSKTTNLPTSVTATKGSLVGLVDYPDDEEEDEEEESSPRKRPRLGS”, “not soluble”; that for “MGSDKIHHHHHHAKSYSKAVTKIAGTKNYPIYHKVTKNGPSGKFTSTSYFKYGQIQSKQYVSTKKGNFWNIIVDGRPVGWVSENCFARNTISVANDVSLVKNSDYSFNTRDAINYATDSHGTAIDPDRVQVSQASVSTKATTVNYSYGKAKASVNIDVRSGNDEMGEANVTPKSGFKTTTTWNGGSKGSSRNWNAAHHYTSETTSNTFKSNGLTLRTRLFQPRFVSLGYGQSADKMGQVGVIPEGMTVNGGIFATSMFTSSSDQHGHIVSYNLNTIKSKYAVQNLTTMNWSTFKSYANNIKVSPYIKLGHGQSLGSSSDYIYVMANDNNYNNGPRSEEIIQIRKSDMKINKIWTFRIAENRYIHNATFVGDNTMYALFHNGGHNHYEYWKLTRNGDSWKATEVGATAGSFVSNSPVQGFAYGNGSFFIGFNDNIFKVSENGAAQKHYRFNTGREIEGLSANGSDLYVQFAQRAELTQGRF”, “not soluble”. The same measure for “MGSDKIHHHHHHMPGSQQSLPLAMVRGQALNSMPVDLFIPPEALEVFLETFEGPLDLLLYLIRKQKLDVVDLPIQQITQQYLLYIEILTEARIELAADYLVMAATLAEIKSRLLLPKMASEDDEEEDPRVVLIRQLKAYEVIKQAAVDIDTLPRIERDVFQASVSAAPDIKPITVPPEVSLVDIARAFGEVLKRIDANEDHHVKREHLSTRERMSQILAKLSSTEYIGFECLFDVSEGRAGVVVSFLALMELVKELLVELVQNEPFSPIYVKAY”: “not soluble”; for “MILLLAGTSDARELAVMIQQAGYNVTATVVTDHAAEQLRSAGIRAYVGRLDASQLADLAKAEGAKAIVDASHPFAEEASKNAMQAAADAGLPYIRYERQASSFSSEKVTFVDSYEEAADLAAEKGGVVMLTTGSKTIDIFAARLIGRPDVKVIARMLPRKDNLDKCERLGFSQEQIVMMQGPFTKELDRALYRHFGVTVVVTKESGKVGFVDEKIAAAEELGIDVIVIRRPRLSYGIVHHDFAGVLDALKQHAPLPTV”: “not soluble”.

For the sequence “MGRHLRLPSGTKLIVARNQGEVNFLKGFRNRYNYAYRKDGKGTFALIKGNPPEEELQLIADIIARYSKNEPAKVGIHLNGKEIELIGNPPSDEFLEQFKIYAKKEVGHGR”, the “soluble on expression in E. coli” value was “not soluble”. The result for “MSTQYETQGYTINNAGRRLVVDPITRIEGHMRCEVNINDQNVITNAVSCGTMFRGLEIILQGRDPRDAWAFVERICGVCTGVHALASVYAIEDAIGIKVPDNANIIRNIMLATLWCHDHLVHFYQLAGMDWIDVLDALKADPRKTSELAQSLSSWPKSSPGYFFDVQNRLKKFVEGGQLGIFRNGYWGHPQYKLPPEANLMGFAHYLEALDFQREIVKIHAVFGGKNPHPNWIVGGMPCAINIDESGAVGAVNMERLNLVQSIITRTADFINNVMIPDALAIGQFNKPWSEIGTGLSDKCVLSYGAFPDIANDFGEKSLLMPGGAVINGDFNNVLPVDLVDPQQVQEFVDHAWYRYPNDQVGRHPFDGITDPWYNPGDVKGSDTNIQQLNEQERYSWIKAPRWRGNAMEVGPLARTLIAYHKGDAATVESVDRMMSALNLPLSGIQSTLGRILCRAHEAQWAAGKLQYFFNKLMTNLKNGNLATASTEKWEPTTWPTECRGVGFTEAPRGALGHWAAIRDGKIDLYQCVVPTTWNASPRDPKGQIGAYEAALMNTKMAIPEQPLEILRTLHSFDPCLACSTHVLGDDGSELISVQVR” reads “not soluble”. The same measure for “MQITQGQRIPLSTLIQGNDLTLSIVIKSAHVIDYVCFGVDANGKLSDDRYMIFFNQPTSPCNSVKQANGGDFQLALDSLPASIDRLVFTASIDGAGVMSDIQASHFSIQHQGREVARGEFSGATFAAEKAIMVADIYRKNGEWRIASNLQGYNAGLDALVGHFGGVADAPPAAPAAPARISLEKKIADAAPQLISLAKKAQVSLEKAKLTDTKARVGLVLDASGSMNPQYTRGHVQEVVDRLIPLAVHFDDDGALDCWAFGAKPQQLNAITLKNFQNFIKTDHGGWKDWELGSRINDEPKAMRMVIDYYKKSGDKTPVYILFISDGGVHQDREITKLMIEAAKLPIFWQFVGLGGRGYGILEKLDDMGGRVVDNCNFFALDRLDEVPEEKLYDLLMEEFPDWLNAAKGAGIL”: “not soluble”; for “MNNDHLDPINSLNVPELADTTFAMDFLIRAKEGVRNTAVALTETASPDVRALLRKQLMQGIAMHQEITELMISKKWFHPYELSEQYKLDQLSAKNTIMVGNMNLFPDETNRKGMFDRTPDEHMAGDPLEHHHHHH”: “not soluble”. The same measure for “MSKSQYKMSKITYASGKMRPPSLIQKLNVYKPFLLIVDINSTNFALVGNGEILGHLFYRQNSPSYTQIKSRLVIYPKCCKLYSEDIAIPLHDWKIENLGAIKLLTKHNSLKTGTLHQIDKTMMLVYMAAFGEDSGVRSKISKPHGKTATWRNQHDLFMQ”: “not soluble”.

As to “MSLRTVLITGTTSGIGYALSELFAKKECHVILVSRNAMKLSAQKQKLENGNNRIDTITCDLEQTNAAEIIYKSIKQNGWQVDILVNNAGFNEAGLFSETDATCEQGMINLHINFVTDMMKLFIPEMIQNSHGHILNVGSTGSYIACPKDAVYAASKAYILHLSKAVHAELKGTGVTVTTLCPGSTRTEFAHKAKIEHTLLFKIFVMSPHKVALSGLRAMEKGKSVIIPGLYNKILVLCSRLLPYSFIGWMTKKMLEGHHHHHH”, the “soluble on expression in E. coli” value is on record as “not soluble”. The result for “MDRHTTEGWRRWAARLGAAAMALLLAACAAPRQQAASVDELPSWNDGPSRTAIVEFVRAVTRSGGPDFVAADERIAVFDNDGTLWSEQPMYFQMLFALDRVKSMAPRHPDWARRQPFKAALQDDHAALAKGGDVALMKIVGATHTDMSTDTFTRSVRYWASTARHPRFDRLYTELTFAPMRELLDYLRAHGFKTYIVSGGETEFMRSWTQQAYGIPPEQVIGSSFVTTYGVRDGEPTLWRHGKLEFNDDGPGKPVAIQRYIGRRPILAFGNSDGDLQMLQWTAAGDGKRFAGLVHHTDAQREWAYDRDSRIGRLDRALDEARRQDWTVVDMKTEWKRVYAFEQP” reads “not soluble”.

“SNAMKTLFLQYPACSTCQKAKKWLIENNIEYTNRLIVDDNPTVEELKAWIPLSGLPVKKFFNTSGVVYKELKLSSKLPTMTEEEQIALLATNGKLVKRPLVVTERFVLVGFKPEEWEKLK”: the “soluble on expression in E. coli” value is recorded as “soluble”. The result for “MRHHTIHPQLEQVFSAPYLRQLQKVTFQKGNYIGTQGQDITELTYILSGRVKIVRSLSNGKEHILQMPQQPQLLGDVELMTNQLAGSSVIALEEVQAAQLPLNNKEALLKDPIFLYHIGRNLAMALHRQGITASTNASYFVKERLATHILNIEEQDIFQLSPSILSSSFGTSYRHVQRVIKQFIDQGIIEKKAFKTYRILQRDSLETLAFID” reads “not soluble”; that for “MSLKNPRIVVVDDSPFSVSILTDMLQRNGFEVVGSASNLNEVKKAVTELNPNLVTMDMVLADTDGLECTKIIHQINPEIRVIAISSMMDDEILAKAKKNNISAYIQKPIDEEELVLAINRISSDDDLYSELKDRYFDIFKQAFSYAFNKFIKEVPNFVEKDEHTVEHVEKGISIVMGIIGKYCGRLILNISYETADKFVESVLNRPAKDLQEILNVVAEFANIVGGNACSMINRENKIFGMRIAPPTTIYGDSINISRNSLDTMNFFTVNVTAGEISVNIGFNKGAVEWMSNEGHHHHHH”, “soluble”; that for “MSTSVKHREFVGEPMGDKEVTCIAGIGPTYGTKLTDAGFDKAYVLFGQYLLLKKDEDLFIEWLKETAGVTANHAKTAFNCLNEWADQFM”, “not soluble”.

For the origin of these results see the DeepSol protein solubility set.
